For this test, the target named is recombinant GST-tagged CaN A subunit, Q08209. The experiment in a line: in vitro peptide pull-down (biotinylated peptide, immunoblot quantification). The note with it: chain shown with the change; recombinant GST-CaN (200 ng); parent: est. 47; read off a plot. (In western blotting, separated proteins are transferred to a membrane and probed.)
In the case of MAGPHTVIFITGPHEE [APP peptide (APP core CaN-binding sequence in the PVIVIT peptide) V642F], the response (% CaN input recovered) was determined as 44.

In the case of MAGPHIVIVITGPHEE [APP peptide (APP core CaN-binding sequence in the PVIVIT peptide) T639I], the response (% CaN input recovered) came to 54.

As for MAGPHTVIVIPGPHEE [APP peptide (APP core CaN-binding sequence in the PVIVIT peptide) T644P], the response (% CaN input recovered) was found to be 5.

For MAGPHTMIVITGPHEE [APP peptide (APP core CaN-binding sequence in the PVIVIT peptide) V640M], the response (% CaN input recovered) is 43.

As for MAGPHTVFVITGPHEE [APP peptide (APP core CaN-binding sequence in the PVIVIT peptide) I641F], the response (% CaN input recovered) came out at 23.

On to MAGPHTVIIITGPHEE [APP peptide (APP core CaN-binding sequence in the PVIVIT peptide) V642I], for which the response (% CaN input recovered) came out at 44.

For the origin of these results see paper PMC11910330, “Familial Alzheimer’s disease mutations in amyloid precursor protein impair calcineurin signaling to NMDA receptors” (The Journal of Biological Chemistry, 2024).
